One block for each binder: values may come before it.
Legend:
[1] = target: human vitronectin (2349-VN, R&D Systems) (human, UniProt P04004 20-478); assay: BLI
[2] = target: T1, mouse vitronectin (ab92727, Abcam) (mouse, UniProt P29788 20-478); assay: BLI
T1 sequence (looked up): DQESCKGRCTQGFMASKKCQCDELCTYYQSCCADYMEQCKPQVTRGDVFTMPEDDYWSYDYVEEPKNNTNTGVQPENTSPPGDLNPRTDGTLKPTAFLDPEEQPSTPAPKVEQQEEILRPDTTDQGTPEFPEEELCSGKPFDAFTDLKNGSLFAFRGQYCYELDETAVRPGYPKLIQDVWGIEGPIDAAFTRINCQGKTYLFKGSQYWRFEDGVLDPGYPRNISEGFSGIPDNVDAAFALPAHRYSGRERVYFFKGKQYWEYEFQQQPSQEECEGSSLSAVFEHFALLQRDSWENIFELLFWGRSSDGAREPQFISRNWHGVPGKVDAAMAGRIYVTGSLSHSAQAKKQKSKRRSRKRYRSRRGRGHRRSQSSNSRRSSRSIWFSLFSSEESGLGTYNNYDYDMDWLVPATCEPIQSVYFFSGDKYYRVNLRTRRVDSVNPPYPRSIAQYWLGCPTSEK

Sequence of human vitronectin (2349-VN, R&D Systems) (P04004 20-478): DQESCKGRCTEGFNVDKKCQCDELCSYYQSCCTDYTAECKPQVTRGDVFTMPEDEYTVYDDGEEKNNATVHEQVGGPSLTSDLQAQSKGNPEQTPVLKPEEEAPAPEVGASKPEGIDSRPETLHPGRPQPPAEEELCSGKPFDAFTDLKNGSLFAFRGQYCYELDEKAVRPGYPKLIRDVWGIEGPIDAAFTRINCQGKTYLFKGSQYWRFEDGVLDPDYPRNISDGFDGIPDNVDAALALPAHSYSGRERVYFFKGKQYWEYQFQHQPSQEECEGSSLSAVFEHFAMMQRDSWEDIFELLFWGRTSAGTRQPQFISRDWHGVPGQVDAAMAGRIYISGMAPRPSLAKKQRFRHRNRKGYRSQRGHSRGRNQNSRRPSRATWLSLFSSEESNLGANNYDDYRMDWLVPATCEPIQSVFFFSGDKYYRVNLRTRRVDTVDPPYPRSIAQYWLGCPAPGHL

Kd [1]: 37.4 ± 0.6 nM
B1: His-tagged human testican-2 (2328-PI, R&D Systems) (natural protein, UniProt Q92563 23-424, looked up)
chain: EGDAKGLKEGETPGNFMEDEQWLSSISQYSGKIKHWNRFRDEVEDDYIKSWEDNQQGDEALDTTKDPCQKVKCSRHKVCIAQGYQRAMCISRKKLEHRIKQPTVKLHGNKDSICKPCHMAQLASVCGSDGHTYSSVCKLEQQACLSSKQLAVRCEGPCPCPTEQAATSTADGKPETCTGQDLADLGDRLRDWFQLLHENSKQNGSASSVAGPASGLDKSLGASCKDSIGWMFSKLDTSADLFLDQTELAAINLDKYEVCIRPFFNSCDTYKDGRVSTAEWCFCFWREKPPCLAELERIQIQEAAKKKPGIFIPSCDEDGYYRKMQCDQSSGDCWCVDQLGLELTGTRTHGSPDCDDIVGFSGDFGSGVGWEDEEEKETEEAGEEAEEEEGEAGEADDGGYIW

Kd [1]: 348 ± 12.4 nM
B2: deglycosylated human testican-2 (natural protein, UniProt Q92563 23-424, looked up)
chain: B1 chain
modifications: deglycosylated (Protein Deglycosylation Mix II kit)

Kd [2]: 63.7 ± 2.3 nM
B3: His-tagged mouse testican-2 (MBS1458329, MyBioSource) (natural protein, UniProt Q9ER58 23-423, looked up)
chain: EGDAKGLKEGETPGNFMEDEQWLSSISQYSGKIKHWNRFRDEVEDDYIKSWEDNQQGDEALDTTKDPCQKVKCSRHKVCVAQGYQRAMCISRKKLEHRIKQPSLKLHGGKDSVCKPCHMAQLASVCGSDGHTYSSVCKLEQQACLSSKQLAVRCEGPCPCPTEQSTASTTDSKSETCTGQDLADLGDRLRDWFQLLRENSKQNGSANSATNPAGLDKSLGASCKDSIGWMFSKLDTSGDLFLDQTELAAINLDKYEVCIRPFFNSCDTYKDGRVSTAEWCFCFWREKPPCLAELERTQIQEAAKKKPGVFIPSCDEDGYYRKMQCDQSRGDCWCVDQLGLELTGTRMHGTPDCDDIVGFSGDFGSGVGWEDEEEKETEEAGEEAEEEEGEAGEADDGGYIW

From publication PMC12776367 (Journal of the American Society of Nephrology : JASN, 2025)
